# From patent publication US20190225670A1, “COMPOUNDS AND METHODS FOR ACTIVATING TIE2 SIGNALING” (ASCLEPIX THERAPEUTICS, LLC, priority 2016, published 2019)
# Experiments:
# [1] = biological target: T1, α5 and β1 integrin subunits (Homo sapiens, UniProt P05556+P08648); experiment: Duolink protein interaction analysis; type: cell-based; conditions: MEC monolayers; 100 μM AXT107 vs vehicle
# T1 construct: host or cells: human dermal microvascular endothelial cells (MEC)
# Protocol: Additionally, changes in the interaction between the α5 s and β1 subunits were further investigated using Duolink™ technology which can visualize individual interactions between α5 and β1 integrin subunits as distinct spots by fluorescence microscopy.
# Glass bottom, 96-well plates were coated with FN1, seeded with MECs, as described above for the immunofluorescence experiments. After growing for forty-eight hours, cells were serum starved for three hours, treated with 100 μM AXT107 or DMSO vehicle for ninety minutes, washed twice with dPBS containing Ca^2+ and Mg^2+, and fixed in 10% neutral buffered formalin. Cells were blocked in 5% normal goat serum; 0.3% Triton X-100 in dPBS containing Ca^2+ and Mg^2+ for one hour and incubated overnight at 4° C. with rabbit anti-α5 integrin and mouse anti-β1 integrin antibodies in PBS containing Ca^2+ and Mg^2+ with 1% BSA and 0.1% Triton X-100. Interaction spots were developed using DUOLINK green detection reagent according to the manufacturer's instructions and detected using the BD pathway 855 system.
# [2] = biological target: T2, β1 integrin subunit (Homo sapiens, UniProt P05556); experiment: Triton X-100 fractionation of MEC lysates, β1 integrin; type: cell-based
# T2 construct: host or cells: human dermal microvascular endothelial cells (MEC)
# T2 sequence (P05556 21-798): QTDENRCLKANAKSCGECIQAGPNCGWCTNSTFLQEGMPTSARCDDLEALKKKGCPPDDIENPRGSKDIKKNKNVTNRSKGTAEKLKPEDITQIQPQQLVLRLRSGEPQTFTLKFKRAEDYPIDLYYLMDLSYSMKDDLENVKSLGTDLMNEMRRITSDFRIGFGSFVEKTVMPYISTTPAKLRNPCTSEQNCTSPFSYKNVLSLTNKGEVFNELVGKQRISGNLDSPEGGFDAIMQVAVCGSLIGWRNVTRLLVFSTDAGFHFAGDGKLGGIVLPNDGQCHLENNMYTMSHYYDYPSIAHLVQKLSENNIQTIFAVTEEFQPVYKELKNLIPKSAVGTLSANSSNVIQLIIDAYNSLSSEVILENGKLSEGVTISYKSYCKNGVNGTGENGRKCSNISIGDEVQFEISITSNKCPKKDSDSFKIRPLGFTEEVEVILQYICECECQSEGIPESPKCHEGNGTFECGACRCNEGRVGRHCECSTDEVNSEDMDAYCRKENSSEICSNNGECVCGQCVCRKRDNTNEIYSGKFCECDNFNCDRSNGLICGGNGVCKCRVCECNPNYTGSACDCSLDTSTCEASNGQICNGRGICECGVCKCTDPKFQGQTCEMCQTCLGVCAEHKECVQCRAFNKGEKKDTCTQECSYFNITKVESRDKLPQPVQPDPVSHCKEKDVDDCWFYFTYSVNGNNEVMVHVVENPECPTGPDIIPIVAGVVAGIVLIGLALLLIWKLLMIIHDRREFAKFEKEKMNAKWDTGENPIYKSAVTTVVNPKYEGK
# Excerpt: Since β1 integrin is the only known β subunit to heterodimerize with the α5 integrin subunit, it unlikely that the as subunit, that was observed here in the insoluble fractions, originated from a heterodimeric integrin pair other than α5β1. Unfortunately, high background impaired the visualization of α5 integrin alone by immunofluorescence. Given the unexpected discovery that AXT107 dissociates the integrin heterodimer, this discovery was confirmed in several independent assays. […] Thus, interactions between Tie2 and heterodimerized α5β1 integrin appear to retain Tie2 at the EC-ECM interface.
# The isolation of Triton X-100 soluble and insoluble fractions was performed using modifications to previously-described procedures (see, e.g., Lampugnani et al., J Cell Biol. 1995; 129(1):203-217). FN1-coated six-well plates were seeded with 2.5×10^6 cells and cultured for forty-eight hours, as described above. The cultures were then serum starved for ninety minutes in EBM-2 media, treated with 100 μM AXT107 or DMSO vehicle, and fifteen minutes with 1 mM sodium vanadate. The cells were then stimulated with either 100 ng/ml VEGFA, 400 ng/ml Ang2, or PBS for fifteen minutes. The plates were then transferred to ice and washed twice with cold dPBS containing Ca^2+ and Mg^2+ and twice with EBM-2 media. […] Samples were analyzed by western blot as described above. […]
# [3] = test system: F-actin; experiment: F-actin immunofluorescence in MEC monolayers; type: cell-based, human; conditions: 200 ng/ml Ang2, increasing concentrations of AXT107
# Protocol: The jaggedness of these junctions is related to the structure of actin within the cell.
# Glass-bottomed, 96-well plates with half well size were coated with 10 μg/ml FN1 for two hours at 37° C. The FN1 solution was then removed by aspiration and the plate seeded with 4×10^3 MECs in EGM-2MV media. After twenty-four hours, the cells were washed once with dPBS containing Ca^2+ and Mg^2+ to remove dead cells and the cells were allowed to grow for an additional twenty-four hours. For three-hour duration treatments (i.e., VE-cadherin), cells were washed twice with dPBS containing Ca^2+ and Mg^2+ and serum starved in EBM-2 for ninety minutes. The media was then removed and the cells were treated for three hours with 100 μl of EBM-2 media containing 200 ng/ml Ang2 or PBS and varying concentrations of AXT107 or DMSO. For fifteen minute-treated samples (i.e., phospho-Tie2), the cells were serum starved in EBM-2 media for 165 minutes, incubated for ninety minutes with varying concentrations of AXT107 or DMSO in EBM-2, and finally stimulated for fifteen minutes with 200 ng/ml Ang2 or PBS supplemented with peptide to retain the same concentrations. These times were chosen so that both treatment procedures would be completed at the same time. The cells were then washed twice with cold dPBS containing Ca^2+ and Mg^2+ and fixed in 10% neutral buffered formalin for fifteen minutes. […]
# T1 sequence (P08648 42-894 limits assumed): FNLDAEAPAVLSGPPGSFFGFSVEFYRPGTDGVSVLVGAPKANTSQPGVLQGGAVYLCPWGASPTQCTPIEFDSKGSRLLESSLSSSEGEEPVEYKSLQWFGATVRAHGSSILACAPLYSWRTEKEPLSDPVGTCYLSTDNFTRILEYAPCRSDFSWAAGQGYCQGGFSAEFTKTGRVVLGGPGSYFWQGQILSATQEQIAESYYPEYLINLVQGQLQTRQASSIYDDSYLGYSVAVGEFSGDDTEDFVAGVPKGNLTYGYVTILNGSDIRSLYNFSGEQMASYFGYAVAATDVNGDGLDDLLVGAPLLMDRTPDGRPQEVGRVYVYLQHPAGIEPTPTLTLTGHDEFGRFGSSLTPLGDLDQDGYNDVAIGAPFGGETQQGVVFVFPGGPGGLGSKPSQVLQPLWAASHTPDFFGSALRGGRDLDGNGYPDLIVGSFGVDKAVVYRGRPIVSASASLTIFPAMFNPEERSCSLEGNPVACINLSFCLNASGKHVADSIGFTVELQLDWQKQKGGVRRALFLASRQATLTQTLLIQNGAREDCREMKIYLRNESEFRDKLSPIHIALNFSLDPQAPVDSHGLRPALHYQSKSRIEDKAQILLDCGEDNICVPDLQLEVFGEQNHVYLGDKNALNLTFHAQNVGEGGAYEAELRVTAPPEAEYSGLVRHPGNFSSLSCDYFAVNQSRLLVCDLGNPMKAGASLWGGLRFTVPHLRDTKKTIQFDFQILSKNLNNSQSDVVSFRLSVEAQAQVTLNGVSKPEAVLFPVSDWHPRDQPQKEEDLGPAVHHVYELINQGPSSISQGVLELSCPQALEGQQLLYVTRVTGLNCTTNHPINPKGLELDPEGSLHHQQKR
# T1 sequence (P08648 895-1049 limits assumed): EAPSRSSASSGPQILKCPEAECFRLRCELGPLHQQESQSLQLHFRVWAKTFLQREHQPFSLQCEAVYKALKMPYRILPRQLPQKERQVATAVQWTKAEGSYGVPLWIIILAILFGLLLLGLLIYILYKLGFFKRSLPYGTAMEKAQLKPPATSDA
# T1 sequence (P05556 21-798): as the sequence (P05556 21-798) above
sequence,measurement,setting,value
LRRFSTAPFAFIDINDVINF [AXT107],interactions between α5 and β1 integrin subunits,[1],significantly reduced
same,β1 integrin subunit in insoluble fraction,"[2]; 100 μM AXT107, long exposure times, high antibody concentrations",never observed in the insoluble fraction
same,interactions of immunoprecipitated α5 integrin with β1,"[2]; Triton X-100 fractionated lysates after AXT107 treatment, data not shown",only found in the soluble fractions
same,actin fiber arrangement,[3],became more cortical
